Assay results from patent US20240392262A1, “TRANSPOSASE AND USES THEREOF” (Poseida Therapeutics, Inc., published 2024).

How the values were obtained:
Test in all cases: cell_activity; split GFP integration
Conditions in all cases: tags: 3xFlag, SV40 NLS; chain copies: 2
ZFM268 TAL-PBx = molecular target: T1, ZFM268 TAL-PBx (synthetic construct)
T1 chain: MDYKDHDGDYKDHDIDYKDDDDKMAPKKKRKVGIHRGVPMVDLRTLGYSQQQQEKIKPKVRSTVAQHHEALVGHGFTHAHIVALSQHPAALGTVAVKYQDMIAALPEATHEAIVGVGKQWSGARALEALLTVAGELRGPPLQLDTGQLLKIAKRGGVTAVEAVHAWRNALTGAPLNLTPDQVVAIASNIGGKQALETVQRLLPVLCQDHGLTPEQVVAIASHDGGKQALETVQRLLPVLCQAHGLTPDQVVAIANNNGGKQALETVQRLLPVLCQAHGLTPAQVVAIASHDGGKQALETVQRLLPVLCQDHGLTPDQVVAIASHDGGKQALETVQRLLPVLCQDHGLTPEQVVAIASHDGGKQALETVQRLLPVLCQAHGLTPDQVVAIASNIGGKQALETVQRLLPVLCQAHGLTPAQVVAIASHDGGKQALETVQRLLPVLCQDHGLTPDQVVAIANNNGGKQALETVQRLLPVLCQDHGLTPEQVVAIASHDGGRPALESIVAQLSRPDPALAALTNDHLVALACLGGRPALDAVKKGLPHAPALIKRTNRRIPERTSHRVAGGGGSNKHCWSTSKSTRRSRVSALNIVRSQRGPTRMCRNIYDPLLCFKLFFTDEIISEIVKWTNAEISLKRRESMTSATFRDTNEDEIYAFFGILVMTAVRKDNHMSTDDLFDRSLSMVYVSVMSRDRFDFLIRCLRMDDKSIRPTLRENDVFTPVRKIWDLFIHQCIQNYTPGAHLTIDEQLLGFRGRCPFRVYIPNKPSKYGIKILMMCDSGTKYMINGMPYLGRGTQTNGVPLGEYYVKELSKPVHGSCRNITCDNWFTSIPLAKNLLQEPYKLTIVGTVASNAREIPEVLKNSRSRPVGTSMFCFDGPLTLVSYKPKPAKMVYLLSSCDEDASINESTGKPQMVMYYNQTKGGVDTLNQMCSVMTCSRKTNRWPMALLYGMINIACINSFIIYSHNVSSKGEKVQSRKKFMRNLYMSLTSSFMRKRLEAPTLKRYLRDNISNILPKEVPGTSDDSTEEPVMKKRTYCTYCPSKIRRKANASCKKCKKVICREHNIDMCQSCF
Protocol: (§1) To determine if the optimal spacer length is consistent from one TAL-ssSPB to the next, similar reporters were constructed with TAL target sites for the GFP1 Left, GFP2 Right, GFP2 Left, and ZFM268 TAL-PBxs as described above. These constructs were tested using a narrower set of spacer lengths of 11 bp, 12 bp, 13 bp, 14 bp, 15 bp constructs for GFP1 Left (SEQ ID Nos. 345-349), GFP2 Left (SEQ ID Nos. 350-354), GFP2 Right (SEQ ID Nos. 355-359) and ZFM268 (SEQ ID NOs: 340-344).
(§2) Each reporter plasmid and the donor plasmid were cotransfected into HEK293T cells with the corresponding TAL-ssSPB expression plasmid. 120,000 HEK293T cells were plated in 24 well plates in 500 ul of DMEM medium supplemented with 10% FBS. The following day, a transfection mixture containing 50 ng of the TAL-ssSPB expression vector, 225 ng of the reporter plasmid, 225 ng of donor plasmid and 1 μl of JetPrime transfection reagent in a total volume of 50 μl of JetPrime buffer were assembled. The mixture was added to the HEK293T cells and the cells were incubated for four days at 37° C. at 5% CO2, splitting the cells 1:6 at day one. The percentage of on-target site-specific transposition positive cells for the various spacer length constructs were determined by FACS analysis and the results are shown in Table 18.

GFP2 Right TAL-PBx = molecular target: T2, GFP2 Right TAL-PBx (synthetic construct)
T2 chain: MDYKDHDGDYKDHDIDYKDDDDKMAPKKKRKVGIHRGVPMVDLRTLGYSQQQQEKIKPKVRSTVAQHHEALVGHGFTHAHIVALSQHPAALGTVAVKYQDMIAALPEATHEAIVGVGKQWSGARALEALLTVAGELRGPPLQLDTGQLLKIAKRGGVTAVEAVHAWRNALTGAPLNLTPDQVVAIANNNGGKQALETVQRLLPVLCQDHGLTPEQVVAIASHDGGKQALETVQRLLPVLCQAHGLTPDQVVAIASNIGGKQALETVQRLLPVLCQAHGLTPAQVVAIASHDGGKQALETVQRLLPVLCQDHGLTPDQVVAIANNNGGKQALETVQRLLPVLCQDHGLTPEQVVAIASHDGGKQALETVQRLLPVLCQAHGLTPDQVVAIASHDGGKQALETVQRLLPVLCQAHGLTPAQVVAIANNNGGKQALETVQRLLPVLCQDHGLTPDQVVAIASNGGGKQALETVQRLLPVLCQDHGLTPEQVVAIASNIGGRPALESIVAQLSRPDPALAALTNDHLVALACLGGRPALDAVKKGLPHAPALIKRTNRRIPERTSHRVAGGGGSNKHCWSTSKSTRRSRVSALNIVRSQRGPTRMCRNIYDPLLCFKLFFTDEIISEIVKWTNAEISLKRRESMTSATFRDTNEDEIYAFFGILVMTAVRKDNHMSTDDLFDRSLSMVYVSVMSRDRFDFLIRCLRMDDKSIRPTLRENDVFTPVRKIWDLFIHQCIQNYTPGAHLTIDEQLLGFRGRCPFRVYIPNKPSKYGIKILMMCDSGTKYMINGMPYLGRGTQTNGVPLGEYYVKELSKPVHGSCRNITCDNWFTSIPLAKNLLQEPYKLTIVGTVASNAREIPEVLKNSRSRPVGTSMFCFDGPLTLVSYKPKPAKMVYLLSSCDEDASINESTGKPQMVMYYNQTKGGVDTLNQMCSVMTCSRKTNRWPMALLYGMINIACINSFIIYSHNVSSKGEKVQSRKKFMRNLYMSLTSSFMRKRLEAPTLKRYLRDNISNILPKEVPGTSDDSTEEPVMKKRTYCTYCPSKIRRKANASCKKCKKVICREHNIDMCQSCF
Protocol: as §1, §2

GFP2 Left TAL-PBx = molecular target: T3, GFP2 Left TAL-PBx (synthetic construct)
T3 chain: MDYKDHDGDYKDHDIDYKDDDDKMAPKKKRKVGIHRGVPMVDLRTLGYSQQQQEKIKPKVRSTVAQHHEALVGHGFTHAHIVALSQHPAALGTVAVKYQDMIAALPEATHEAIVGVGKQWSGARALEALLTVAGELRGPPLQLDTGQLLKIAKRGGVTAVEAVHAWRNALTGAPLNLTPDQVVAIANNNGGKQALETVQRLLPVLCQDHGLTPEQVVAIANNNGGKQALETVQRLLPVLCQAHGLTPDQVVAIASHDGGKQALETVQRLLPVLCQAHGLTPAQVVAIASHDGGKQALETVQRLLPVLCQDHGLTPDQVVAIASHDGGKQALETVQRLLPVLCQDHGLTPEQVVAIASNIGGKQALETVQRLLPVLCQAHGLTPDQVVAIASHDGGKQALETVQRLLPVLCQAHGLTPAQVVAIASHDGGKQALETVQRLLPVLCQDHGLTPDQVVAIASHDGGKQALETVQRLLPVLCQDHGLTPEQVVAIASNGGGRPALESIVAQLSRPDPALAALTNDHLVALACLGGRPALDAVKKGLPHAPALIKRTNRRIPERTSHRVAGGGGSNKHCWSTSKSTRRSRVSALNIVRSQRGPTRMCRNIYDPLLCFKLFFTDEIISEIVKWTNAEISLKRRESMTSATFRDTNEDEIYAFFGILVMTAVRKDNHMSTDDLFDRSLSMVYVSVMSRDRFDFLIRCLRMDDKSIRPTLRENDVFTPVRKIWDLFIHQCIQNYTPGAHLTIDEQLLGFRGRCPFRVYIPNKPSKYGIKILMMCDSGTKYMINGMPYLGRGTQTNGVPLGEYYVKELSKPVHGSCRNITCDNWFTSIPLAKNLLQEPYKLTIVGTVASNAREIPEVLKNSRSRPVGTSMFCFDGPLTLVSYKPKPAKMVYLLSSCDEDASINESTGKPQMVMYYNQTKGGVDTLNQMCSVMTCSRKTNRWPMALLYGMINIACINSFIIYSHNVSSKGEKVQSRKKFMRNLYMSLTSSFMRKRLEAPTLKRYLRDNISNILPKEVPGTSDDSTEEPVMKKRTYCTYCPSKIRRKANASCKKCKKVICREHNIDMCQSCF
Protocol: as §1, §2

GFP1 Left TAL-PBx = molecular target: T4, GFP1 Left TAL-PBx (synthetic construct)
T4 chain: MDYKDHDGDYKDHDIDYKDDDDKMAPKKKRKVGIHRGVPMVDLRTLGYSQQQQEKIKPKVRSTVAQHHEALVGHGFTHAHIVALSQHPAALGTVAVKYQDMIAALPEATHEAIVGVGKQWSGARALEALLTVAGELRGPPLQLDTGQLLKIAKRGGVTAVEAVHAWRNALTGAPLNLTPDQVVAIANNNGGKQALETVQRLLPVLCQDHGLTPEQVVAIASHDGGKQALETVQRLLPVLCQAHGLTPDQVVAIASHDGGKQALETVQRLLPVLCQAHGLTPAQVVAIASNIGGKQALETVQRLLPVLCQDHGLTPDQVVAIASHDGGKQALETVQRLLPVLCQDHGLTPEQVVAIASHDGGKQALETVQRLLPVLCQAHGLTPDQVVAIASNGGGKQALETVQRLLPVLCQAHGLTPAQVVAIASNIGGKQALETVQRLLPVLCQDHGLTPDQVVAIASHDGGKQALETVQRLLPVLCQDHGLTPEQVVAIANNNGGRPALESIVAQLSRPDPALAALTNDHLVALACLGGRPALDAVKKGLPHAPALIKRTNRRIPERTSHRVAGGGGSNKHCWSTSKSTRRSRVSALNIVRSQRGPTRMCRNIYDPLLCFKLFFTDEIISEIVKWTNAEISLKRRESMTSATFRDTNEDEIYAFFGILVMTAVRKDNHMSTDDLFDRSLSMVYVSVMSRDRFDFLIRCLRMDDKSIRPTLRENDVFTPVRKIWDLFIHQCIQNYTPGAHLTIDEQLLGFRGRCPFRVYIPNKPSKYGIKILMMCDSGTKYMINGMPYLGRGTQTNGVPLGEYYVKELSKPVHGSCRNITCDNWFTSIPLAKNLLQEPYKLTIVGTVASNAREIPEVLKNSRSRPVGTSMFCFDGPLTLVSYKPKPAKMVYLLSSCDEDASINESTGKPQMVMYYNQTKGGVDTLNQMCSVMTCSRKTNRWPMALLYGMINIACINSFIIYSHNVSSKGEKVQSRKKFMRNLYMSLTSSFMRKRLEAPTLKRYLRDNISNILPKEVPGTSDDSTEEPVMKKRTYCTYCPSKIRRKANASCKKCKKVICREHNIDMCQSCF
Protocol: as §1, §2

B1: ZFM268 TAL 13 bp spacer (dsDNA)
DNA 1: TACGCCCACGCGCAATCTCACGGCTTAACTACTGACCTGAAGCGTGGGCGTA
DNA 2: TACGCCCACGCTTCAGGTCAGTAGTTAAGCCGTGAGATTGCGCGTGGGCGTA
Work on B1 yielded an activity (ZFM268 TAL-PBx) of 21.2 % GFP+.

B2: GFP2R 12 bp spacer (dsDNA)
DNA 1: TGCACGCCGTAGCAATCTCCGGCTTAACTACTGACTGAATACGGCGTGCA
DNA 2: TGCACGCCGTATTCAGTCAGTAGTTAAGCCGGAGATTGCTACGGCGTGCA
With B2 the activity (GFP2 Right TAL-PBx) was 16.9 % GFP+.

B3: GFP2L 12 bp spacer (dsDNA)
DNA 1: TGGCCCACCCTGCAATCTCCGGCTTAACTACTGACTGAAAGGGTGGGCCA
DNA 2: TGGCCCACCCTTTCAGTCAGTAGTTAAGCCGGAGATTGCAGGGTGGGCCA
For B3, the activity (GFP2 Left TAL-PBx) was 22.4 % GFP+.

B4: GFP1L 13 bp spacer (dsDNA)
DNA 1: TGCCACCTACGGCAATCTCACGGCTTAACTACTGACCTGAACGTAGGTGGCA
DNA 2: TGCCACCTACGTTCAGGTCAGTAGTTAAGCCGTGAGATTGCCGTAGGTGGCA
Binder B4 has an activity (GFP1 Left TAL-PBx) of 17 % GFP+.

B5: GFP2L 13 bp spacer (dsDNA)
DNA 1: TGGCCCACCCTGCAATCTCACGGCTTAACTACTGACCTGAAAGGGTGGGCCA
DNA 2: TGGCCCACCCTTTCAGGTCAGTAGTTAAGCCGTGAGATTGCAGGGTGGGCCA
For B5, the activity (GFP2 Left TAL-PBx) was 23.5 % GFP+.

B6: ZFM268 TAL 12 bp spacer (dsDNA)
DNA 1: TACGCCCACGCGCAATCTCCGGCTTAACTACTGACTGAAGCGTGGGCGTA
DNA 2: TACGCCCACGCTTCAGTCAGTAGTTAAGCCGGAGATTGCGCGTGGGCGTA
Work on B6 yielded an activity (ZFM268 TAL-PBx) of 21.8 % GFP+.

B7: GFP1L 12 bp spacer (dsDNA)
DNA 1: TGCCACCTACGGCAATCTCCGGCTTAACTACTGACTGAACGTAGGTGGCA
DNA 2: TGCCACCTACGTTCAGTCAGTAGTTAAGCCGGAGATTGCCGTAGGTGGCA
In the case of B7, the activity (GFP1 Left TAL-PBx) is reported as 13.7 % GFP+.

B8: GFP2R 13 bp spacer (dsDNA)
DNA 1: TGCACGCCGTAGCAATCTCACGGCTTAACTACTGACCTGAATACGGCGTGCA
DNA 2: TGCACGCCGTATTCAGGTCAGTAGTTAAGCCGTGAGATTGCTACGGCGTGCA
B8 showed an activity (GFP2 Right TAL-PBx) of 15.8 % GFP+.
